According to ChEMBL document CHEMBL4433268, “Rational design of a SHP-2 targeted, fluorogenic peptide substrate” (Bioorg Med Chem Lett, 2019):

Tests used:
Details in all cases: Homo sapiens
[1] = substrate: CC[C@H](C)[C@H](NC(=O)[C@@H](NC(=O)[C@H](CC(=O)O)NC(=O)[C@H](CC(=O)O)NC(C)=O)[C@@H](C)O)C(=O)N[C@@H](Cc1cc(=O)oc2cc(OP(=O)(O)O)ccc12)C(=O)N[C@@H](CC(=O)O)C(=O)N[C@H](C(=O)N[C@@H](CC(C)C)C(=O)N[C@@H](CC(=O)O)C(N)=O)C(C)C
Description: (§1) Substrate activity at SHP2 (unknown origin) expressed in Escherichia coli BL21 (DE3) assessed as Km incubated for 60 mins by fluorescence based assay

[2] = substrate: CC[C@H](C)[C@H](NC(=O)[C@@H](NC(=O)[C@@H]1CCCN1C(=O)[C@H](CC(=O)O)NC(C)=O)[C@@H](C)O)C(=O)N[C@@H](Cc1cc(=O)oc2cc(OP(=O)(O)O)ccc12)C(=O)N1CCC[C@H]1C(=O)N[C@H](C(=O)N[C@@H](CC(C)C)C(=O)N[C@@H](CC(=O)O)C(N)=O)C(C)C
Description: as §1

[3] = substrate: CC[C@H](C)[C@H](NC(=O)[C@@H](NC(=O)[C@H](CC(=O)O)NC(=O)[C@H](CC(=O)O)NC(C)=O)[C@@H](C)O)C(=O)N[C@@H](Cc1cc(=O)oc2cc(OP(=O)(O)O)ccc12)C(=O)N[C@@H](CC(=O)O)C(=O)N[C@H](C(=O)N[C@@H](CC(C)C)C(=O)N[C@@H](CC(=O)O)C(N)=O)C(C)C; remark: listed apart in the source
Description: (§2) Substrate activity at SHP2 (unknown origin) expressed in Escherichia coli BL21 (DE3) assessed as Kcat incubated for 60 mins by fluorescence based assay

[4] = substrate: CC[C@H](C)[C@H](NC(=O)[C@@H](NC(=O)[C@@H]1CCCN1C(=O)[C@H](CC(=O)O)NC(C)=O)[C@@H](C)O)C(=O)N[C@@H](Cc1cc(=O)oc2cc(OP(=O)(O)O)ccc12)C(=O)N1CCC[C@H]1C(=O)N[C@H](C(=O)N[C@@H](CC(C)C)C(=O)N[C@@H](CC(=O)O)C(N)=O)C(C)C; remark: listed apart in the source
Description: as §2

[5] = substrate: CC[C@H](C)[C@H](NC(=O)[C@@H](NC(=O)[C@H](CC(=O)O)NC(=O)[C@H](CC(=O)O)NC(C)=O)[C@@H](C)O)C(=O)N[C@@H](Cc1cc(=O)oc2cc(OP(=O)(O)O)ccc12)C(=O)N[C@@H](CC(=O)O)C(=O)N[C@H](C(=O)N[C@@H](CC(C)C)C(=O)N[C@@H](CC(=O)O)C(N)=O)C(C)C; remark: listed apart in the source
Description: (§3) Substrate activity at SHP2 (unknown origin) expressed in Escherichia coli BL21 (DE3) assessed as Kcat/Km ratio incubated for 60 mins by fluorescence based assay

[6] = substrate: CC[C@H](C)[C@H](NC(=O)[C@@H](NC(=O)[C@@H]1CCCN1C(=O)[C@H](CC(=O)O)NC(C)=O)[C@@H](C)O)C(=O)N[C@@H](Cc1cc(=O)oc2cc(OP(=O)(O)O)ccc12)C(=O)N1CCC[C@H]1C(=O)N[C@H](C(=O)N[C@@H](CC(C)C)C(=O)N[C@@H](CC(=O)O)C(N)=O)C(C)C; remark: listed apart in the source
Description: as §3

B1: Tyrosine-protein phosphatase non-receptor type 11 (Homo sapiens), Q06124 (protein)
chain: MTSRRWFHPNITGVEAENLLLTRGVDGSFLARPSKSNPGDFTLSVRRNGAVTHIKIQNTGDYYDLYGGEKFATLAELVQYYMEHHGQLKEKNGDVIELKYPLNCADPTSERWFHGHLSGKEAEKLLTEKGKHGSFLVRESQSHPGDFVLSVRTGDDKGESNDGKSKVTHVMIRCQELKYDVGGGERFDSLTDLVEHYKKNPMVETLGTVLQLKQPLNTTRINAAEIESRVRELSKLAETTDKVKQGFWEEFETLQQQECKLLYSRKEGQRQENKNKNRYKNILPFDHTRVVLHDGDPNEPVSDYINANIIMPEFETKCNNSKPKKSYIATQGCLQNTVNDFWRMVFQENSRVIVMTTKEVERGKSKCVKYWPDEYALKEYGVMRVRNVKESAAHDYTLRELKLSKVGQGNTERTVWQYHFRTWPDHGVPSDPGGVLDFLEEVHHKQESIMDAGPVVVHCSAGIGRTGTFIVIDILIDIIREKGVDCDIDVPKTIQMVRSQRSGMVQTEAQYRFIYMAVQHYIETLQRRIEEEQKSKRKGHEYTNIKYSLADQTSGDQSPLPPCTPTPPCAEMREDSARVYENVGLMQQQKSFR
B1 gave a Km [1] of 220 µM, a Km [2] of 700 µM and a kcat [3] of 0.059 s⁻¹. For the same protein, the kcat [4] was 0.0045 s⁻¹, the kcat/Km [5] was 270 M⁻¹ s⁻¹ and the kcat/Km [6] was 6 to 6.4 M⁻¹ s⁻¹.
